# From a protein production outcome set (Wang et al. 2014)
# Assay: label from the status in PepcDB records
row,Sequence,protein production
1,MDAKARNCLLQHREALEKDIKTSYIMDHMISDGFLTISEEEKVRNEPTQQQRAAMLIKMILKKDNDSYVSFYNALLHEGYKDLAALLHDGIPVVSSSSGKDSVSGITSYVRTVLCEGGVPQRPVVFVTRKKLVNAIQQKLSKLKGEPGWVTIHGMAGCGKSVLAAEAVRDHSLLEGCFPGGVHWVSVGKQDKSGLLMKLQNLCTRLDQDESFSQRLPLNIEEAKDRLRILMLRKHPRSLLILDDVWDSWVLKAFDSQCQILLTTRDKSVTDSVMGPKYVVPVESSLGKEKGLEILSLFVNMKKADLPEQAHSIIKECKGSPLVVSLIGALLRDFPNRWEYYLKQLQNKQFKRIRKSSSYDYEALDEAMSISVEMLREDIKDYYTDLSILQKDVKVPTKVLCILWDMETEEVEDILQEFVNKSLLFCDRNGKSFRYYLHDLQVDFLTEKNCSQLQDLHKKIITQFQRYHQPHTLSPDQEDCMYWYNFLAYHMASAKMHKELCALMFSLDWIKAKTELVGPAHLIHEFVEYRHILDEKDCAVSENFQEFLSLNGHLLGRQPFPNIVQLGLCEPETSEVYQQAKLQAKQEVDNGMLYLEWINKKNITNLSRLVVRPHTDAVYHACFSEDGQRIASCGADKTLQVFKAETGEKLLEIKAHEDEVLCCAFSTDDRFIATCSVDKKVKIWNSMTGELVHTYDEHSEQVNCCHFTNSSHHLLLATGSSDCFLKLWDLNQKECRNTMFGHTNSVNHCRFSPDDKLLASCSADGTLKLWDATSANERKSINVKQFFLNLEDPQEDMEVIVKCCSWSADGARIMVAAKNKIFLFDIHTSGLLGEIHTGHHSTIQYCDFSPQNHLAVVALSQYCVELWNTDSRSKVADCRGHLSWVHGVMFSPDGSSFLTSSDDQTIRLWETKKVCKNSAVMLKQEVDVVFQENEVMVLAVDHIRRLQLINGRTGQIDYLTEAQVSCCCLSPHLQYIAFGDENGAIEILELVNNRIFQSRFQHKKTVWHIQFTADEKTLISSSDDAEIQVWNWQLDKCIFLRGHQETVKDFRLLKNSRLLSWSFDGTVKVWNIITGNKEKDFVCHQGTVLSCDISHDATKFSSTSADKTAKIWSFDLLLPLHELRGHNGCVRCSAFSVDSTLLATGDDNGEIRIWNVSNGELLHLCAPLSEEGAATHGGWVTDLCFSPDGKMLISAGGYIKWWNVVTGESSQTFYTNGTNLKKIHVSPDFKTYVTVDNLGILYILQTLE,failed
2,MDAKETSATDLKRPREEDDNGGAATMETENGDQKKEPACFSTVIPGWFSEMSPMWPGEAHSLKVEKVLFQGKSDYQDVIVFQSATYGKVLVLDGVIQLTERDECAYQEMITHLPLCSIPNPKKVLVIGGGDGGVLREVARHASIEQIDMCEIDKMVVDVSKQFFPDVAIGYEDPRVNLVIGDGVAFLKNAAEGSYDAVIVDSSDPIGPAKELFEKPFFQSVARALRPGGVVCTQAESLWLHMDIIEDIVSNCREIFKGSVNYAWTSVPTYPSGVIGFMLCSTEGPDVDFKHPLNPIDESSSKSNGPLKFYNAEIHSAAFCLPSFAKKVIESKAN,failed
3,MDALIMAGGKGTRMGGVEKPLIKLCGRCLIDYVVSPLLKSKVNNIFIATSPNTPKTKEYINSAYKDYKNIVVIDTSGKGYIEDLNECIGYFSEPFLVVSSDLINLKSKIINSIVDYFYCIKAKTPDVEALAVMIPKEKYPNPSIDFNGLVPAGINVVSPKHGYQKEEIMVIDELIFNINTKDDLKLAEMLLKKDGL,failed
4,MDANEKKEVIKKRFQEIAMSGGTCCSGGGCCGDSSSSDISRAIGYSEADIEAVPDANMGLGCGNPASIAELKPGDIVLDLGSGAGFDCFLAAQKVGNSGKVIGVDMTPEMVEKVQANARKYGYSNVEFRQGDIEALPVEDSSVDVIISNCVINLAPDKEKVFREAFRVLKLGGRLYISDLVLLDELPEDLKNDRDLLAGCVAGAVLKEEYLKLLKRAGFSVEILAEDPDISKSQYKGLPVESLKLKAWVLEHHHHHH,not failed
5,MDAVVVLCYLLLALPTIIPSVVDGKWLVVAILLLIAIALFFRRPFPLQVVLAVSLLEIAATILNPWGSNVSAGLWFALYAVASLRKRALALVVFAVASLPLSLLYLFMWTSPSEMDNLQDVPENFHLINNIATAVTIMLSNLLATGIGISVRQRREHEAEIAAWAARTTQLGKVTERNRIAREMHDVVAHSLTVMISLSDGAAVVVKKDPERAGDVLGELSRTGRAALADMRRVLGVLRDDSGRPAPLTPLESGQNLAKLLDGFRTAGLPLHYAHTGPGLPADPAFELTVYRIVQESLTNVLRYGRSLSRVDVQVARDGDLVTIDVLDDGRGTREGGSESVGSLGTGQGIAGMNERAGIYAGIVTAGPGKRGGWAVHAELRWNGEKGES,failed
6,MDCYLNAANSFARILDEYQTYNSLVVAFDFDDTVYDFHKKGRLYADVVTLLRDLKKINCHLICWTGQEDLTFVKNYLMENNIPFDDINENPPFHVSSSKKVYANVYLDDRAGLKQVFGELTQLLQHESIRIKSV,failed
7,MDDDMDIQQSYPFTVEVMPVPNKVVKGQTVEIRCELKKEGDFSGTLYTIRYFQFEGEGSLKMDNGITFLPNDRYLLENEKFRLYYTAAGDEAHNFIVVVEDNFSNSYELEFDFNNRNVKDDDLTIVPIGNFSPLLKLEHHHHHH,failed
8,MDDGTGAKRTKATVLQRVSSVLNADAHDATALDGGEVGSVYRVSFHDRPDVAVKVDDSPLGIEAAMLQSLDRDTPLPVPEVLHVEPELLVLSFIRGDGRFDERAERDLARHVAALHDTSADVFGFPFDTLSGPFSQSNPWTDSWIDFFRAQRLLPFATAARNEGALPAGEFDRVQRLAETLDARLVEPATPSLLHGDIHPGNAVVADGTVRAVLDPAIYFGHAEVDLAYVDRLDSIGAAFYDEYRQHRDISAGYFEERRDVYVAFHALENVRFFGEDELPRLERALDRLGM,failed
9,MDDIDSLILIGVLIALTAFFVASEFAIVRVRRSRIDQLITEGNKRAILARRVITDLDEYLSASQLGITLTSIGLGVLGEPAFERLLHPLFEPLGLPDSVSHAVSFAVAYGLITFLHVVVGELAPKTVAIQKAEQLTLLIAGPLRLFYLLLFPFIWILNGSARLLCGMFGLKPASEHDGSHSEEELRMLLSESLKNGEINPSEYKYVNKIFEFDNRIAKEIMIPRKEMAAVSTEMTMAEMLEVMLKEKYTRWPVTDGDKDSVLGLVNTKHLFSDLLFMTEEERMKMTIHPYVRPVIEVIETIPVHDLLIKMQRERIHMAILSDEYGGTSGLVTTEDILEEIVGEIRDEFDEDEQPLIQKLGDGHYVMDGKVRIDQVNSLLGASIQEDVDTIGGLILKENIDIEAGESIRIGSYTIKVLKMDGRLIKQIDIKEEAGNTTGITAHHKLPLPEPVMLNSATLSEK,failed
10,MDDLTNLAARLRLLEDREEIRELIARYGPLADSGDAEALSELWVEDGEYAVVGFATAKGRAAIAALIDGQTHRALMADGCAHFLGPATVTVEGDTATARCHSVVFRCVSGTFGSHRVSANRWTFRRTPAGWRAVRRENALLDGSAAARALLQFR,not failed
11,MDDQSGDQMRPELTMPPAEAEALRMAYEEAEVILEYGSGGSTVVAAELPGKHVTSVESDRAWARMMKAWLAANPPAEGTEVNIVWTDIGPTGDWGHPVSDAKWRSYPDYPLAVWRTEGFRHPDVVLVDGRFRVGCALATAFSITRPVTLLFDDYSQRRWQHQVEEFLGAPLMIGRLAAFQVEPQPIPPGSLMQLIRTMTSP,not failed
12,MDDVKDKLKGFMKKVNLSSSSGKFKGQGRVLGSSSSSSAPPVNPIQNRFNSSQAPNPTPRPKPNPNPLPEKPLSSSDQKISGSTRNPDHDPVRAPQDGFDPYGAFITSSNRSQNGYSLSMFECPICKNPFTSEEEVSVHVESCLGDTNGDESSFEKDNNDNDKSEMEKLVVVYLSGKPSESSIDVLLRLFKNIVKEPENAKFRKVRMSNAKIKEAIGDVAGGVELLELVGFELKEENDEIWAVMDVPSEEQSILINKVVGYLEKRKTESSGSSAQVMEPVAPKKIDRENGCFLVQIRVFFSVSENVASRIEVPDSFYSLSADEIKREADLRRKKIAESQLLIPRSYKEKQAKAARKRYKRSMIRVQFPDGVVLQGVFAPWEPTFALYEFVSSALKEPSLQFELLDPVLVKRRVIPHTPAPGQKPITLEDEELVPSALIRFRPIETDSLVFTGLRNELLEISEPLS,failed
13,MDEDGFSQCSKHFSKRGYFSGGGVCPFCLHERLSSLCPDCAHDLPCSCSSRAAVSFSPSSSSSSSSFSIFAGDISFNISGVGSVGRVASLIECEPAFRRSKSMAIPIKPDSVIDSGLDHGRSKKTSSFWRIFMGNRGDTKPAIMKKSRSVAVAGEFGFSPVPVPATGKGKGWNFPSPIKVFRQSRVSKMIFQQRSPLYRG,failed
